Results from patent US20250282861A1 (SYDDANSK UNIVERSITET, published 2025).

Molecular target: T1, recombinant human MFAP4 (microfibrillar-associated protein 4) (human, UniProt P55083 22-255)
T1 construct: It was coated on plates or filters at 10 µg/ml and also served as the ELISA standard; also called rhMFAP4; hrMFAP4
T1 sequence (looked up): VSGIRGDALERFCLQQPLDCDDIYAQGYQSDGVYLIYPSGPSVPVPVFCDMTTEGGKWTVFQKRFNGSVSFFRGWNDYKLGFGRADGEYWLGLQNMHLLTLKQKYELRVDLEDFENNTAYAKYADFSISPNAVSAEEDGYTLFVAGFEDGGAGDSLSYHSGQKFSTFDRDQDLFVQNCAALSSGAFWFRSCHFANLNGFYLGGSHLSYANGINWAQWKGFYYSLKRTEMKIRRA
Assay: sandwich ELISA, capture antibody coated at 1 µg/ml; rhMFAP4 as standard
Description: The next day, plates were washed and blocked with PBS/tween for 1h at room temperature. […] Then, plates were successively incubated with horseradish peroxidase (HRP)-conjugated streptavidin (1:2000, diluted in PBS/tween, Invitrogen) for half an hour at room temperature, O-phenylenediamine dihydrochloride (OPD) (0.4 mg/ml, H1009, Sigma) dissolved in HRP with 0.03% H₂O₂, for 15 min at room temperature in the dark. Finally, 100 μl/well of 1M H₂SO₄ was added to stop the color development. Optical density was read at 492 nm wavelength with 620 nm as reference using ELISA microplate reader.

B1: HG Hyb 7-5 murine monoclonal antibody raised against human recombinant MFAP4 (antibody, mouse IgG1, V domains shown)
VH: EVQLQQSGPELVKPGASVKLSCKTSGYTFTSYDMNWVKQRPGQGLEWIGWIFPRDGSTKFNEKFKGKATLTVDTSSTTAYMELHSLTSEDSAVYFCARAEIFFDYGFDYWGQGTTLTVSS
VL: DIVMTQSTALMAASPGEKVTITCSVSSSISSSNLHWYQQKSETSPKSWIYGTSNLASGVPGRFSGSGSGTSYSLTISSVEAEDAATYYCQQWSSYPLTFGGGTKLEIK
notes: Used as the capture antibody in the ELISA for human MFAP4
  binding result: binds
